# Reference: US20140348819A1, “Methods of Treating Cancer” (Dana-Farber Cancer Institute, Inc., priority 2011, published 2014)
# B1: Pleiotrophin (protein, UniProt P21246 33-168, looked up)
# Pleiotrophin: GKKEKPEKKVKKSDCGEWQWSVCVPTSGDCGLGTREGTRTGAECKQTMKTQRCKIPCNWKKQFGAECKYQFQAWGECDLNTALKTRTGSLKRALHNAECQKTVTISKPCGKLTKPKPQAESKKKKKEGKKQEKMLD
# System: six V600E BRAF melanoma cell lines
# Assay: Screening of recombinant RTK ligands for ability to confer resistance to BRAFi (PLX4720) or MEKi (PD184352) (Table 4)
# Assay type: cell-based, human
# Design: ability of recombinant RTK ligand to confer resistance / ability of recombinant RTK ligand to confer resistance (screening value): scale not given here
# Method in brief: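 Six V600E BRAF melanoma lines treated with PLX4720 or PD184352 after addition of 22 recombinant RTK ligands, scored for drug resistance. Activation of selected RTKs confirmed by western blotting and high-throughput tyrosine kinase phosphorylation profiling.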
molecule,measurement,setting,value
B1,ability of recombinant RTK ligand to confer resistance,"A2058, PD184352 - 1 uM, ligand 3.9 ng/ml",1.06
same,ability of recombinant RTK ligand to confer resistance,"A2058, PD184352 - 1 uM, ligand 15.625 ng/ml",1.07
same,ability of recombinant RTK ligand to confer resistance,"A2058, PD184352 - 1 uM, ligand 62.5 ng/ml",1.03
same,ability of recombinant RTK ligand to confer resistance,"A2058, PD184352 - 1 uM, ligand 250 ng/ml",1.00
same,ability of recombinant RTK ligand to confer resistance,"A2058, PD184352 - 1 uM, ligand 1000 ng/ml",0.87
same,ability of recombinant RTK ligand to confer resistance,"A2058, PLX4720 - 2 uM, ligand 3.9 ng/ml",1.03
same,ability of recombinant RTK ligand to confer resistance,"A2058, PLX4720 - 2 uM, ligand 15.625 ng/ml",1.04
same,ability of recombinant RTK ligand to confer resistance,"A2058, PLX4720 - 2 uM, ligand 62.5 ng/ml",1.04
same,ability of recombinant RTK ligand to confer resistance,"A2058, PLX4720 - 2 uM, ligand 250 ng/ml",1.02
same,ability of recombinant RTK ligand to confer resistance,"A2058, PLX4720 - 2 uM, ligand 1000 ng/ml",0.93
same,ability of recombinant RTK ligand to confer resistance,"C32, PD184352 - 1 uM, ligand 3.9 ng/ml",1.07
same,ability of recombinant RTK ligand to confer resistance,"C32, PD184352 - 1 uM, ligand 15.625 ng/ml",1.08
same,ability of recombinant RTK ligand to confer resistance,"C32, PD184352 - 1 uM, ligand 62.5 ng/ml",1.07
same,ability of recombinant RTK ligand to confer resistance,"C32, PD184352 - 1 uM, ligand 250 ng/ml",1.12
same,ability of recombinant RTK ligand to confer resistance,"C32, PD184352 - 1 uM, ligand 1000 ng/ml",0.99
same,ability of recombinant RTK ligand to confer resistance,"C32, PLX4720 - 2 uM, ligand 3.9 ng/ml",1.01
same,ability of recombinant RTK ligand to confer resistance,"C32, PLX4720 - 2 uM, ligand 15.625 ng/ml",1.04
same,ability of recombinant RTK ligand to confer resistance,"C32, PLX4720 - 2 uM, ligand 62.5 ng/ml",0.95
same,ability of recombinant RTK ligand to confer resistance,"C32, PLX4720 - 2 uM, ligand 250 ng/ml",0.96
same,ability of recombinant RTK ligand to confer resistance,"C32, PLX4720 - 2 uM, ligand 1000 ng/ml",0.87
same,ability of recombinant RTK ligand to confer resistance,"Colo 829, PD184352 - 1 uM, ligand 3.9 ng/ml",1.05
same,ability of recombinant RTK ligand to confer resistance,"Colo 829, PD184352 - 1 uM, ligand 15.625 ng/ml",0.99
same,ability of recombinant RTK ligand to confer resistance,"Colo 829, PD184352 - 1 uM, ligand 62.5 ng/ml",0.99
same,ability of recombinant RTK ligand to confer resistance,"Colo 829, PD184352 - 1 uM, ligand 250 ng/ml",0.96
same,ability of recombinant RTK ligand to confer resistance,"Colo 829, PD184352 - 1 uM, ligand 1000 ng/ml",0.95
same,ability of recombinant RTK ligand to confer resistance,"Colo 829, PLX4720 - 2 uM, ligand 3.9 ng/ml",1.03
same,ability of recombinant RTK ligand to confer resistance,"Colo 829, PLX4720 - 2 uM, ligand 15.625 ng/ml",0.96
same,ability of recombinant RTK ligand to confer resistance,"Colo 829, PLX4720 - 2 uM, ligand 62.5 ng/ml",0.97
same,ability of recombinant RTK ligand to confer resistance,"Colo 829, PLX4720 - 2 uM, ligand 250 ng/ml",0.36
same,ability of recombinant RTK ligand to confer resistance,"Colo 829, PLX4720 - 2 uM, ligand 1000 ng/ml",0.98
same,ability of recombinant RTK ligand to confer resistance,"G-361, PD184352 - 1 uM, ligand 3.9 ng/ml",0.96
same,ability of recombinant RTK ligand to confer resistance,"G-361, PD184352 - 1 uM, ligand 15.625 ng/ml",0.96
same,ability of recombinant RTK ligand to confer resistance,"G-361, PD184352 - 1 uM, ligand 62.5 ng/ml",0.97
same,ability of recombinant RTK ligand to confer resistance,"G-361, PD184352 - 1 uM, ligand 250 ng/ml",0.92
same,ability of recombinant RTK ligand to confer resistance,"G-361, PD184352 - 1 uM, ligand 1000 ng/ml",0.92
same,ability of recombinant RTK ligand to confer resistance,"G-361, PLX4720 - 2 uM, ligand 3.9 ng/ml",1.04
same,ability of recombinant RTK ligand to confer resistance,"G-361, PLX4720 - 2 uM, ligand 15.625 ng/ml",0.97
same,ability of recombinant RTK ligand to confer resistance,"G-361, PLX4720 - 2 uM, ligand 62.5 ng/ml",0.94
same,ability of recombinant RTK ligand to confer resistance,"G-361, PLX4720 - 2 uM, ligand 250 ng/ml",0.94
same,ability of recombinant RTK ligand to confer resistance,"G-361, PLX4720 - 2 uM, ligand 1000 ng/ml",1.00
same,ability of recombinant RTK ligand to confer resistance,"SK-MEL-5, PD184352 - 1 uM, ligand 3.9 ng/ml",0.93
same,ability of recombinant RTK ligand to confer resistance,"SK-MEL-5, PD184352 - 1 uM, ligand 15.625 ng/ml",1.00
same,ability of recombinant RTK ligand to confer resistance,"SK-MEL-5, PD184352 - 1 uM, ligand 62.5 ng/ml",1.02
same,ability of recombinant RTK ligand to confer resistance,"SK-MEL-5, PD184352 - 1 uM, ligand 250 ng/ml",1.08
same,ability of recombinant RTK ligand to confer resistance,"SK-MEL-5, PD184352 - 1 uM, ligand 1000 ng/ml",1.11
same,ability of recombinant RTK ligand to confer resistance,"SK-MEL-5, PLX4720 - 2 uM, ligand 3.9 ng/ml",0.92
same,ability of recombinant RTK ligand to confer resistance,"SK-MEL-5, PLX4720 - 2 uM, ligand 15.625 ng/ml",0.89
same,ability of recombinant RTK ligand to confer resistance,"SK-MEL-5, PLX4720 - 2 uM, ligand 62.5 ng/ml",0.95
same,ability of recombinant RTK ligand to confer resistance,"SK-MEL-5, PLX4720 - 2 uM, ligand 250 ng/ml",1.07
same,ability of recombinant RTK ligand to confer resistance,"SK-MEL-5, PLX4720 - 2 uM, ligand 1000 ng/ml",0.97
same,ability of recombinant RTK ligand to confer resistance,"SK-MEL-28, PD184352 - 1 uM, ligand 3.9 ng/ml",1.11
same,ability of recombinant RTK ligand to confer resistance,"SK-MEL-28, PD184352 - 1 uM, ligand 15.625 ng/ml",0.98
same,ability of recombinant RTK ligand to confer resistance,"SK-MEL-28, PD184352 - 1 uM, ligand 62.5 ng/ml",0.93
same,ability of recombinant RTK ligand to confer resistance,"SK-MEL-28, PD184352 - 1 uM, ligand 250 ng/ml",1.02
same,ability of recombinant RTK ligand to confer resistance,"SK-MEL-28, PD184352 - 1 uM, ligand 1000 ng/ml",0.87
same,ability of recombinant RTK ligand to confer resistance,"SK-MEL-28, PLX4720 - 2 uM, ligand 3.9 ng/ml",1.04
same,ability of recombinant RTK ligand to confer resistance,"SK-MEL-28, PLX4720 - 2 uM, ligand 15.625 ng/ml",0.95
same,ability of recombinant RTK ligand to confer resistance,"SK-MEL-28, PLX4720 - 2 uM, ligand 62.5 ng/ml",0.95
same,ability of recombinant RTK ligand to confer resistance,"SK-MEL-28, PLX4720 - 2 uM, ligand 250 ng/ml",0.96
same,ability of recombinant RTK ligand to confer resistance,"SK-MEL-28, PLX4720 - 2 uM, ligand 1000 ng/ml",0.89
